Assay: soluble on expression in E. coli; label from the status in PepcDB or PDB records

Soluble on expression in E. coli, not soluble:
MGSDKIHHHHHHGLDRWMSWKTAPYIYDELQDLPYRQVGVVLGTAKYYRTGVINQYYRYRIQGALNAYNSGKVNYLLLSGDNALQSYNEPMTMRRDLIKGGVDPADIVLDYAGFRTLDSIVRTRKVFDTNDFIIITQRFHCERALFIALHMGIQAQCYAVPSPKDMWSVRLREFGARFGALADLYIFKREPRFLGPLIPIPAQQHDVPDDAQSYPAVTPEQLLELQKEK
MGSDKIHHHHHHGYQFTDVVKVPATPVKNQASTGTCWCFATTSFMESELLRMGKGTYDLSEMFIVRQKYMNQLQDNYVRQGRGNIGQGSLSHTFMNAFNQVGIVPEEVYSGINYDSDRHNHAEMVKYIKAIATTAVDMKKRSPEYYKLIDNLFDTYLGKLPEKFTYQGKEYTPKTFAASLGLNMDDYIELTSFTHHPYYQKFEVEVPDNWEHAQMYNLPLNEMMEVADYALNNGYTVCWDGDVSEKGFSFKNGVAINPEVKKVEDYSTTDRARFEKMDEKERLEEVYKFEKPFPEVNVTPQVRQEGFEAFVTTDDHLMHLTGIAKDQNGTKYYITKNSWGTERNTFGGYLNMSDSFVRAKTIYIMVHKDAIPKAIKSKLGI
MGSDKIHHHHHHHTDKAEFLDFSNLTQYRQDVKTLASDAFEGRAPLSKGETLTLDFLVNAFKEMGLAPGFGDSYLQAVPMAKITAKQDMQLTIGALKFTHGKDFTARSQQIKPHIALNNSEVVFVGYGINAPEFGWNDYAGIDVKGKTVIMLVNDPGFATQDNKRFKGNAMTYYGRWTYKYEEAARQGAAAVFIVHETAPAGYGWGVVENSNTGSKFTLVDDNNNLSQIAVMGWLQHKATQQIFATAGLDFDSLKLSTHKAGFKTVDLNLSAKLNLDNSIEMAKSHNVLALLPGATEFDGKRNPQQDELVVMHAHWDHLGSKTHQDGSQEIFNGAVDNASGTAGVLALARAFKAKASVTPFKRSILFSAFTAEETGLIGAQYFAQNPSVPTKNIAAFLNIDGMNVNDGVSYILQYGQGVSELEDYLEDAAKAQQRTVKADPLPQNGLMFRSDHFALAQEGVPGLLFMSLGDTDPNYIDAKYHKEADDYDANWSLGGVSQDLSLIGSILARLANNSDWPKWLEDSDFKTRRSEDNR
MGSDKIHHHHHHKESGSLLNLLTDAEIERTEKIVISGNGLEEKDFAVLKAMLIRHALREVDIENTSTRAITERAFEGCSNLSAIKLPKYLVNTGWYAFEDCSGLMDIELPVSVETIANSFRGCSSLTSITLGRRVKSLDSQSFYLCSNLREVHCKGSIPPSCKQDSFKGLYETCTLYVPEGCKRDYTFADGWLNFGNIREEYVEPALSLRVNLEGGTFAWQLYPLYDGNGGIIVNHFYPGQDYLIDVEKGETIVFHIAEENTYFSNWKIDTILLNGEDITSQVTENDLLYLNIDRDSKLEIVMKDLSVTSNDVIENPQDIKISTLDNKVLIQNITTGERVNVYNVLGVLVHSVVVEAMDYEVQLPKGEIYLIQIGKKTVKLKL
MGSDKIHHHHHHLEYVIEMLNIRKEFGSFVANDNITLQLRKGEIHALLGENGAGKSTLMNVLFGLYQPEAGEIRVRGEKVNITSPNVANDLGIGMVHQHFMLVQNFTVTENIILGAEPKAGLKIDRAAAREKVRQISEQYGLAVDPDAKIEDISVGMQQRVEILKTLYRGADILIFDEPSAVLTPQEIKELIQIMNRLIAEGKSIILITHKLKEIMEVADRCTTIRRGKYIGTVDIDETMTQSRLAEMMVGREVNFNAEYSKATPQELVLDIKDLVVKDSRGIKAVDGLNLDIRAGEIVGIAGIDGNGQTELIEAITGLRKADSGEIFLNNKSIKNLKPRKVTEAGVGHIPQDRHKHGLVLDYSIGHNMVLQTYYQKPYSKAGIMNYGQVMDKAKTLIEKFDVRTPSPETFARALSGGNQQKAIIAREVDRSPDLLIAAQPTRGLDVGAIEFIHEQLVLEREKGRAVLLISFELEEILQVSDRIAVLYEGRTVAFLDPKETNEIELGFLMAGGKKEEVGRS
MGSDKIHHHHHHLFNYFQLNDPKDFKHLLNMAGQDILINGKPARALITNTNLTESKDNRNITTLENIESGYLIDYDDGKWLVISEVSGKRYNKYKGIMQKCHNTLTVNIAGILHRVPYVVTNKVNLNIDVTYYLTVLENEIYILVANNTINSNIQLNDIYKIGRFNYKVISMDDISRPGLLLMKMKYSEEGQVLPNYSITILNGDTLTTDTATPVQLNVEQKDGETVLTNPLPMVFTSSDISIATVDSTGMVTPVSVGNVTITVSFESDTTVNDSIVITVEEVEVPETYTLELIGDTEIKQNQTKTYTAVKKNGLGDIVEGATFDFSIDPETTPADKYTLTVLDNTQCSIKANGATYYINLIATDRTDNSLTVSKRIWLKPLF
MGSDKIHHHHHHLKALVVGLGSIGVRHLNNLHALEVRELGVVRSRNFPPPTEIVPKDIAVFQDIDLALSRKFDLVVVANPTSLHLETLIKALRAGSHVYVEKPVAHEKRRLSELTRYVSLDGPRVLVGCQFRMHPGLRKIEGWIRQGKLGKIHSVQVDLGEYLPGWHPWEDYRQSYAARADQGGGVVLTLIHELDYLHWLFGKPKSVFAIGGHRTSLDITAEDTALITFETEQDICVQLRMDYWRKPPVRHMNIVAENAIVDWDYPTRLTTLRQNGQVLDEMVLVPSWDRNELFLSMMKEFIEGIPRGSIPRVTLRDGIEVLKTALAVKKSLQTHRKVAL
MGSDKIHHHHHHLLKSSSTVHKGADYWTKRISDQEMPALCSTVRELEKLAKDDVSSLAILGRSVMHDNALTSRILRVANSATYNKGINHVSTVSRAAVMLGFDTLRNICITARLLSSLLENKNLSPNVYQRLLKLMAQSFQAAMLARMMMTGHDEKLREEVFIASLLYRIGESAFWSTGGSFSDALDQKLRDSDSEQDPQAIVRDILGTSFSQLTQNIARSWGLGEVLLKSLSHPDERTPEIRCIALADKLAQLLIEPAEDPNEFAERLKQTADMLNIEVSEFRQKVVDCTKATQKLAIDYGAKVLLDFLPKSADVKASVDQEAKPLVVRASDAAIQLKKLRELTGYALTKTDFNQVMLTALEGILSGVGVDRCGVLLLSPNRQLLQPRIMLGDEAEAMKREFIISLDETMSIFSQCVERKTPFWVADPNAKEWQKSINPALKTKLSKTGFFLAPVSIDTRVIGVFFADRSHSGRSFEPQDYDNFTHFTQLANICFGVSVK
MGSDKIHHHHHHLNLIWTNLRVPVEEDERQLPLMIARKLKVSQQSISNLRILRRSVDARKKPQLLFSYTLGFSLDIPYKEVNRVLHRVADLKPEPQIMPRPFMKPEKSLKHRPIVVGAGPAGYFAALTLAKGGYAPLVLEQGDDVETRSLKVENFWRTGQLDTESNVQFGEGGAGTFSDGKLTTRIADPRITEVLETFVEQGAPSEILFLAKAHIGTDILKIVTQRLREKIQSLGGEVRFRAKLTGLRHQNGKLVGVEVNHQEVVPAEAVILAIGHSARETYRLLLAQGVHLEQKAFAIGLRIEHPQKLINTSQYGVEFHPKLGPADYQLTYQDTTTGRGAYAFCMCPGGKVVAAASDLERLVTNGMSEYRRDTGIANSALVVTVGKGDFQREHPLAGVEFQEYWEHQAFLAGDRDYKAPAQSVRDFLAKRVTGDFPLPASYTPGIQPVELHRVLPQAVGDVLDRALLSFERKIQGFAGEMGTLTGIETRTSAPVRITRDKMGEALHIQGLFPAGEGAGYAGGIMSAAVDGIRSAEGIMAQYNPAD
MGSDKIHHHHHHLQKYLSILRNSPFFKGLADNEILSILHCVNATTISKKRDSYIFRAGDITEVMGIVVSGCVLIIQEDIWGHRNILSKCHAGDFFGEPYAASQRAVLNISVVADEDCEIILLNVKRLLITCPTACEHHQKLIRNLVSVLANKILILNDKITHVGKRTTRDKLLSYLSAESIRHSSLSFDIPFDRQQLADYLCIDRAAMSTEISKLQKEGFIKTNRNHFELQLSIIKKKNYTI
MGSDKIHHHHHHLSVRATISDSKSDFHKEFPYVIPAIYRKLADELLVELHLLSHQKNFKKDSIFSTGLKEVFSKFTSGYKPSEHATKLFDAICNCNGFNPTEINNSSEQLVSNAKSFTKEDLNSFLSKTNNDNKGYDYYSRINAIGIYKLVSEMPLFKEVKEEDLNKEINDISKSLGYQYSRVEKDISMYKSNIEKMKQALEIIALNLKTK
MGSDKIHHHHHHLTQPITDWYKSGTGSTPVLKFQFATEKLLRPSGGGPSRRGTPIREIPMNLHKLLSDREQDGRPIRVGLIGAGRYGTMYLAQANNIPGIHVVAIADINVKRAEGAFELVGWPKNQIAPDIATALRDRSTTIVANADELFDVDIDVIVEATGNPIVGVKHALRAIETKKHIIMVTVEADALAGPALARRAEAAGVVYSMAYGDQPALIMELVDWARTSGFDVVCAGKGAKFLEHYHEMNPDNVWENWEFSKELTDSGQLNPNMHTSFRDGTKASIEMAAVANGAGLVPSDTGLTFTPGDVEEIATICRPADAGGVLAHEGTVDVMSSVKRDGTWIPHNTQEGVFVVVKATNAYVSGCFTEYPWHPDPTGQYAALYRPYHYVGLELNMSIANAALRGISTGSPIGFFGDVVATAKKNLKAGEFLDGEGGYTVWGQLVSAKHSVATGALPVALAHHVELRNDVAKGGIVGWDDVIMDDSLSQALEVRRETEALVAEFALNA
MGSDKIHHHHHHMADAATLKARVAQIFREAWTTREGQKVPDPGDVKLGNDAVEFEKATILYADLSGSTDLVNAHGWTFAAEIYKTYLHCAATIIRDEGGSIVSYDGDRVMGVFIGDPQTTPAARAGLKINYAVQEIINPALKAQYPSNTFVVRQVVGIDTSPIRAARTGVRGDNDLVWVGRAANYAAKLTELKLDERTWITKEAYDRLTDDAKFGGANRTLMWKFYRWSQMNDHPIYGSTWRWSL
MGSDKIHHHHHHMADAPIDIFQSILSRKSIRAFTDQPVTQETIREILKLAARAPSGTNLQPWQVIVLTGKILQKVGQELSQLVLSGIKGEREYHYYPRQWREPYLSRRRKVGLDLYKSLGIQKGDQEKMLHQKAKNFLFYGAPVGLLFTIDHDMEMGSWLDLGMFMQTIMLAARGFGLDTCAQAAFADYHKQIRSLLSVPSDRHIICGMALGYRDMNAPENNFETEREPIDNFVHFIKSYP
MGSDKIHHHHHHMAENNTPQETEQDQEARFREEFEVGGKDRQLSEEEQLEQLGSYIDAHYPVPDFTPPWAGGAGDPDPADRYIAHLPDRTTHTAMIMLGSGLDHSMPGVAFIGGVSVDDVPEVGGAIFHPSNPTGRWAVSFHSGGWWRGSGDALEFQWRPEVAAAAELSGTTILDLDYPLAPGHNLHDMNEVVGKAVGYARHHNPVSITGWGYSSGAALAAINASLFDALVLTFPDLGSVEKLPAEIRGDAVVPAAAAWPTTFVQIAAQDEIAERPGELGDATVKEYVSRHRISTPKVAREKITDVAEFLKTVC
MGSDKIHHHHHHMAESKTKRLLYFMSELEKGNQINKEEYIAKFNISDRTMKEDVSELKTNLKELRPNMQIKFSRKHACYFASYEQGYGNLKYNQAVILSKILLESRALRKEEVAEIINIFVERAVDDKERTRIKKLTQFELNSYQELKFYQKSNKSILPTISAIFDAIVDQRPLAFSYTKPSSKVEEYIVLPISVIFDNHYFYCISYKLDNCFQSRYELQELRYFRVDRFKTIHKSISNSAFALTEEEQERLITDEQVRYQTFSMLSDQKWVRIQFRYTGQFRDVLEADIPKLKMINELEEGIIYEIETLSLLGFQKYIQRFDGDFVFLNIKSIKK

— the DeepSol protein solubility set
